Results published in the supplement of paper PMC12764529.
± gives the half width of the 95% confidence interval.

Assay: folding stability dG unfold from chymotrypsin proteolysis; higher = more stable
How it was run: (§1)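 Digests were run with trypsin and chymotrypsin at 11 concentrations in threefold dilutions, plus a no-protease condition, on designed mini-proteins in a PA-tagged cDNA display construct. The mini-proteins were under 80 residues, had no cysteine, and were kept only when AlphaFold2 dimer inter-PAE was above 15. After sequencing, Bayesian fitting of the counts gave K50, from which unfolding free energy was derived against a sequence-predicted unfolded-state K50 and a shared folded-state K50, per protease or combined.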

Sequence	folding stability dG unfold
SAGMEEVEITIKITIEVPEGEEVTPEELAEALREAGFEIVEVKVEKTEDGRKRVTVEIKIRLTPEELEKSAG [r5_167_TrROS_Hall]	2.02 ± 0.15 kcal/mol
SAPDVVVVPIKIPPGEMSPSDMIEMIEQAFDQFNWPITPDRIEKLVDKAMKNGDSIWAVIRYLREEGWLSAG [r14_364_TrROS]	3.022 ± 0.021 kcal/mol
SKKIIKIKIEVIFPKTKKKIEIEIEMTEEEAKKLAEELKKKFKDEKVEVKIVKIEPLPPKKKKKVSKKKKSA [r9_14_TrROS_Hall]	1.99 ± 0.1 kcal/mol
PVKVIEIRVEDPEKTAEEILAELRKKLPEEVKELRLFIVTPDGRVREIEPGETLADLLKPGDTVRIVVVERS [r1_56_TrROS_Hall]	5.66 ± 0.45 kcal/mol
SAGKKIHITLTEDELREIAEALGLEPEDMTAEELAARLREEFPDVEVTIEKPPVEEREREERELAEEEKSAG [r5_264_TrROS_Hall]	0.984 ± 0.068 kcal/mol
SAGGSAGGSAGGKTLKLTLTLKVEVKETVTTTTADGTTEERPVKEVEVKLTATIDLSDLSAGGSAGGSAGGS [r10_355_TrROS_Hall]	4.38 ± 0.2 kcal/mol
SAGGGPAPVVVTVEYDPETREQRVTARAGGGGVVFELSLPLGDKTVTVKVIPVGDKVLLEVEWEVKGSAGGS [r16_631_TrMRF]	3.06 ± 0.13 kcal/mol
SAGRFIRIRFKDPGMSMDNLVKEIKEELGIPPDHKVTIDWEPDPNGGYEITIQVDDPQVRDKILEALRSAGG [r19_215_TrROS]	2.5 ± 0.081 kcal/mol
SAGGSAGGSGSSLVSETVEEGPGLTTRTLTYRLPGAPGVLLERTVTYDPEGNELATSLTVVPESAGGSAGGS [r12_62_JUSTAS]	0.0935 ± 0.076 kcal/mol
SAGGSAGGSAGGLGLDLPVFPVKTTTSSSTVPLPNGQTVTVTTTTTTFPGSSSTTTTTTGSAGGSAGGSAGG [r17_59_JUSTAS]	1.46 ± 0.037 kcal/mol
SAGGSAGGSAGGSMTLVIKNGIGYTVIKIKVEYDEETGEFSFELEIETKPVPPNYPVPASAGGSAGGSAGGS [r4_215_TrMRF]	4.39 ± 0.33 kcal/mol
SAGGAKELFEAIPGAEAEYDPETGTLRVRFEFPDYTVLVEIPTDKETGEVLGVRVYVIDKDGVPHEIDLSAG [r5_367_TrMRF]	4.81 ± 0.15 kcal/mol
SAGGSAGGSELNIEKIVVLDYDPETGLAYVKIFYGDGEVKEFKVKSLEELKEKFPDVEILEKGSAGGSAGGS [r12_403_TrMRF]	4.57 ± 0.084 kcal/mol
SAGMMKRIVVTARFPADEMTLDEFVELILAKLPGVKPVRVEILSVRPRPDGSYEVTVLLLVEAPPDVDASAG [r5_682_TrMRF]	4.216 ± 0.032 kcal/mol
SAGLGIWRDPDMWKLEFNLLLPNGYVYKVEVTVTPDGIDVSIEPVPIPPVPTADSPEDAKEYQKQNENQSAG [r5_272_TrROS]	2.61 ± 0.18 kcal/mol
SAGGAIELPDLGEEEAIETLKKLAEEGIKNPVGVIRTPTKPLVITYDPETNTVTITLPDGTILTLVVSAGGS [r16_481_JUSTAS]	1.83 ± 0.028 kcal/mol
SAKKKKPLPKIKKIKITITLKDGTKIEMEITKVEVLEDGTVKIKMKMKVIDKKTKKKYEFEIEIIIKLKSAG [r14_591_TrROS_Hall]	3.28 ± 0.17 kcal/mol
SAGGPSIPGEKIRELLEKGYSLEEIVEFLEKENIPIARIEGVEPHPNSITIVFYNPETGEKITAVIGSAGGS [r8_179_TrMRF]	2.96 ± 0.081 kcal/mol
SAGGSAGGSARIYVTLPDGTVLEVEFEGEEEAERVAEEIEAELKEKGIEPKSITIEPVSPEEGSAGGSAGGS [r12_301_JUSTAS]	1.69 ± 0.075 kcal/mol
SASEDGYVVVEITIPIEIYMPMYKYSPDGKWKWEPHQMEIKLEITVQVKKDPEAADRAREFADRILDYISAG [r14_830_TrROS]	3.59 ± 0.21 kcal/mol
SAGGSAPPNIVRPYVRPFLIYNPNGEPAALGELVIFEAPEGRLILLRLRSLENGEELELPFLYPGESAGGSA [r15_819_TrMRF]	3.453 ± 0.02 kcal/mol

Assay: folding stability dG unfold (combined trypsin and chymotrypsin); higher = more stable
How it was run: as §1

Sequence	folding stability dG unfold
SAGGPFYLRIKIVDEDGKEITYMFPAPADEAEEEIEELLPGWPLKIDEVERFPGEPGYIMVTIKIPPNSAGG [r13_832_TrROS]	1.97 ± 0.12 kcal/mol
SRLTVTSEVDPNGNSSTSTITYYDPSTGQPYTLTVTITKLPDGTYKVTITFPSNSTTTTFTLAPDETINLSA [r9_1220_JUSTAS]	3.04 ± 0.22 kcal/mol
SAGGMTRKLTFLGDIDKPVGLDGDIEIRPNPETGGFTIRVPPGVRIEAEVERLTDPPLALVTVTFLESAGGS [r16_122_TrMRF]	0.715 ± 0.054 kcal/mol
SPLERLLRAILNAPADTTIVVPLPDDLVAVIRIEPATTELDGVPYRFLVARIEIRNPDGVLLGELTLVLPLS [r1_386_TrMRF]	5.63 ± 0.11 kcal/mol
SMEIRIKEVNEDGYLVIEIRVLSEDGKELTPEEVEELAEEIAAELKEKFPDVKVTVERLEDGTVRIVVEPSA [r9_485_TrROS_Hall]	2.89 ± 0.22 kcal/mol
SAGGSAGGSAGGGSIVIENPEKGLTLTYDPATGNVTITFPGGERKVSPVGSIEKAKELLSAGGSAGGSAGGS [r10_849_JUSTAS]	1.02 ± 0.06 kcal/mol
SAGGMKVEIIRKDGKKVTLEGMTLEELLALLPEGEEYVIKVEVTVVDEKTKKKETVELTFTVPVEDLSAGGS [r16_806_TrROS_Hall]	2.04 ± 0.075 kcal/mol
SAGGMPVVIEIHVPKDKEEELARLIRRLLSELGAEVRVERFEDGIKVTAVLPDGTVIELHIVDDEKASAGGS [r16_406_TrMRF]	4.24 ± 0.19 kcal/mol
SGPGPEKIKEIIKKLFPNLKIESIEEDPATGKYTIKFPNGYTVEVEVPPDGTVTLTVKTPNSTTTFTVPESA [r9_304_JUSTAS]	2.26 ± 0.063 kcal/mol
SAGGGMTVTRTIYLPNMTEEEKKALAEEIAEEVREELEKRGYPVKEITVDVKFIPGKGIVIVTVTLKLSAGG [r13_212_JUSTAS]	3.52 ± 0.055 kcal/mol
